First the molecules themselves.
B1: GST-tagged USP8 MIT domain (1-142) [human] / DBP 116-131 peptide, cellulose-bound (SPOT array) [human] (parent complex)
chain 1: MPAVASVPKELYLSSSLKDLNKKTEVKPEKISTKSYVHSALKIFKTAEECRLDRDEERAYVLYMKYVTVYNLIKKRPDFKQQQDYFHSILGPGNIKKAVEEAERLSESLKLRYEEAEVRKKLEEKDRQEEAQRLQQKRQETG
chain 2: YVDLDAFLLEHGLPPS
B2: GST-tagged USP8 MIT domain (1-142) [human] / DNAJB6 118-130 peptide, cellulose-bound (SPOT array) [not stated] (parent complex)
chain 1: B1 chain 1
chain 2: PFEDFFGNRRGPR
B3: GST-tagged USP8 MIT domain (1-142) [human] / Girdin 1192-1207 peptide, cellulose-bound (SPOT array) [human] (parent complex)
chain 1: B1 chain 1
chain 2: EVEHRDLEDRYNQLLK
B4: GST-tagged USP8 MIT domain (1-142) [human] / Cadherin-1 863-877 peptide, cellulose-bound (SPOT array) [not stated] (parent complex)
chain 1: B1 chain 1
chain 2: NEWGNRFKKLADMYG

The first assay covers variants of B1. Put plainly: SPOT array alanine scanning; read off a plot.
Consider chain 2 YVALDAFLLEHGLPPS [chain 2 D3A], for which the screen value is approximately -84%. Same read-out and setting: for chain 2 YVDLDAFLLEHGLPAS [chain 2 P15A] the value was approximately 19%. Take chain 2 YVDLDAFLLEHGLPPA [chain 2 S16A]: the screen value was approximately 12%. In the case of chain 2 YVDLAAFLLEHGLPPS [chain 2 D5A], the screen value is approximately -100%. Turning to chain 2 YVDLDAFALEHGLPPS [chain 2 L8A], the screen value is approximately -20%. On the same count and under the same terms, as for chain 2 YVDLDAFLLEHGLAPS [chain 2 P14A], the figure is approximately -5%; as for chain 2 YVDLDAFLLEAGLPPS [chain 2 H11A], approximately -79%; as for chain 2 YVDLDAFLLEHGAPPS [chain 2 L13A], approximately -22%.

As to chain 2 YVDLDGFLLEHGLPPS [chain 2 A6G], the screen value was approximately -38%. On to chain 2 YVDLDAFLLEHALPPS [chain 2 G12A], for which the screen value was approximately -87%.

On to chain 2 AVDLDAFLLEHGLPPS [chain 2 Y1A], for which the screen value is approximately 110%. On the same count and under the same terms, for chain 2 YVDLDAALLEHGLPPS [chain 2 F7A] the value was approximately -72%; for chain 2 YVDLDAFLAEHGLPPS [chain 2 L9A], approximately 98%; for chain 2 YADLDAFLLEHGLPPS [chain 2 V2A], approximately 98%. Still for that read-out and setting: as for chain 2 YVDADAFLLEHGLPPS [chain 2 L4A], the figure is approximately -52%. chain 2 YVDLDAFLLAHGLPPS [chain 2 E10A]: the screen value was approximately -94%.

Variants of B2 are the subject of a further assay. The experiment in a line: SPOT array alanine scanning; read off a plot.
As to chain 2 PFEDFFGNRRGPA [chain 2 R13A], the screen value is approximately 20%.

Take chain 2 PFEDFFGNARGPR [chain 2 R9A]: the screen value was approximately -19%. The same measure, in the same setting: as for chain 2 PFEDFFGNRRAPR [chain 2 G11A], the figure is approximately -39%; as for chain 2 PFEDAFGNRRGPR [chain 2 F5A], approximately -63%.

As for chain 2 PFADFFGNRRGPR [chain 2 E3A], the screen value was approximately -46%.

For chain 2 PFEDFAGNRRGPR [chain 2 F6A], the screen value is approximately -67%. For chain 2 PAEDFFGNRRGPR [chain 2 F2A], the screen value is approximately 10%. On to chain 2 PFEDFFANRRGPR [chain 2 G7A], for which the screen value was approximately -40%. Regarding chain 2 AFEDFFGNRRGPR [chain 2 P1A], the screen value is approximately 30%. The same measure, in the same setting: as for chain 2 PFEDFFGARRGPR [chain 2 N8A], the figure is approximately -48%; as for chain 2 PFEDFFGNRAGPR [chain 2 R10A], approximately -29%. As to chain 2 PFEDFFGNRRGAR [chain 2 P12A], the screen value was approximately -17%. On the same count and under the same terms, as for chain 2 PFEAFFGNRRGPR [chain 2 D4A], the figure is approximately -88%.

Variants of B3 are the subject of a further assay. Put plainly: SPOT array alanine scanning; read off a plot.
Turning to chain 2 EAEHRDLEDRYNQLLK [chain 2 V2A], the screen value was approximately 69%. As for chain 2 EVAHRDLEDRYNQLLK [chain 2 E3A], the screen value is approximately 80%. Turning to chain 2 EVEHRDLEDRYNQLLA [chain 2 K16A], the screen value is approximately 120%. With chain 2 EVEHRDLEDRYNALLK [chain 2 Q13A], the screen value is approximately 28%. chain 2 EVEHRDLEDRANQLLK [chain 2 Y11A]: the screen value is approximately -100%. On the same count and under the same terms, for chain 2 EVEARDLEDRYNQLLK [chain 2 H4A] the value was approximately 65%; for chain 2 EVEHRDAEDRYNQLLK [chain 2 L7A], approximately -100%. For chain 2 EVEHRDLEDAYNQLLK [chain 2 R10A], the screen value was approximately -92%.

With chain 2 EVEHRDLEDRYNQALK [chain 2 L14A], the screen value is approximately -94%.

Regarding chain 2 EVEHRDLEDRYNQLAK [chain 2 L15A], the screen value is approximately -81%.

As for chain 2 AVEHRDLEDRYNQLLK [chain 2 E1A], the screen value is approximately 50%. Take chain 2 EVEHRDLADRYNQLLK [chain 2 E8A]: the screen value was approximately -72%. Same read-out and setting: as for chain 2 EVEHRDLEDRYAQLLK [chain 2 N12A], the figure is approximately -37%; as for chain 2 EVEHRDLEARYNQLLK [chain 2 D9A], approximately 58%. Turning to chain 2 EVEHRALEDRYNQLLK [chain 2 D6A], the screen value is approximately 40%. chain 2 EVEHADLEDRYNQLLK [chain 2 R5A]: the screen value was approximately 48%.

In the next assay the parent is B4. The experiment in a line: SPOT array alanine scanning; read off a plot.
chain 2 AEWGNRFKKLADMYG [chain 2 N1A]: the screen value is approximately -9%.

For the variant chain 2 NEWGNRFKKAADMYG [chain 2 L10A], the screen value is approximately -62%. Take chain 2 NEWGNRFKKLADMYA [chain 2 G15A]: the screen value was approximately -57%. Same read-out and setting: as for chain 2 NEAGNRFKKLADMYG [chain 2 W3A], the figure is approximately -100%.

In the case of chain 2 NEWGNRFKKLAAMYG [chain 2 D12A], the screen value was approximately -56%. For the variant chain 2 NEWGNRFKALADMYG [chain 2 K9A], the screen value was approximately -70%. As to chain 2 NEWGNRFKKLADMAG [chain 2 Y14A], the screen value was approximately -44%. Turning to chain 2 NAWGNRFKKLADMYG [chain 2 E2A], the screen value was approximately -57%. For the variant chain 2 NEWGNRFAKLADMYG [chain 2 K8A], the screen value was approximately -65%. chain 2 NEWGNRFKKLGDMYG [chain 2 A11G]: the screen value was approximately -32%. On to chain 2 NEWGNAFKKLADMYG [chain 2 R6A], for which the screen value was approximately -98%. Still for that read-out and setting: for chain 2 NEWGARFKKLADMYG [chain 2 N5A] the value was approximately -34%; for chain 2 NEWGNRFKKLADAYG [chain 2 M13A], approximately -22%.

On to chain 2 NEWANRFKKLADMYG [chain 2 G4A], for which the screen value was approximately -39%. The same measure, in the same setting: for chain 2 NEWGNRAKKLADMYG [chain 2 F7A] the value was approximately -100%.
